B1: 13.1.2 mIgG1 (antibody, V domains shown)
VH: QVQLVESGGGVVQPGRSLRLSCAASGFTFSSYGMHWVRQAPGKGLEWVAVIWYDGSNKYYVDSVKGRFTISRDNSKNTLYLQMNSLRAEDTAVYYCARDGWQQLAPFDYWGQGTLVTVSS
VL: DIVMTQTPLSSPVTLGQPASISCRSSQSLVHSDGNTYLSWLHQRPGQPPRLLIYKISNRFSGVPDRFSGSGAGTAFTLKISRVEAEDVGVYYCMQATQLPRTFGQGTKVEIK
B2: 13.1.2 mIgG2a (antibody, V domains shown)
VH: B1 VH
VL: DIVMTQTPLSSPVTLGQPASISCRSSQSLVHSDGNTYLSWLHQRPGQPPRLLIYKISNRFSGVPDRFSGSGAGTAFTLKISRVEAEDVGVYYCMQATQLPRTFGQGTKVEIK

Experiments:
[1] = biological target: T1, recombinant human wild type EGFR protein (extracellular domain), denatured (human, UniProt P00533 25-645); assay: ELISA on recombinant antigen
T1 construct: Same protein as m23 after 95 C for 5 min in PBS with 40 mM DTT (denatured, reduced); also called wt EGFR Denatured
Procedure: (§1) Pre- and post-immune sera titers of animals were assessed by ELISA on recombinant EGFRvIII protein. Unless otherwise stated, all incubations were performed at room temperature. […] Microplates were washed three times in PBS and blocked for 30 min with PBS containing 1% bovine serum albumin (BSA, Sigma Cat #A7030). Blocking buffer was removed and 25 μl of serial dilutions of sera samples were added. […] After a 1-h incubation, microplates were washed 4 times and 25 μl of p-nitrophenyl phosphate (pNPP) substrate (Sigma-Aldrich Canada Co., Oakville, ON) at 1 mg/ml in carbonate buffer at pH 9.6 was added and further incubated for 30 min.
(§2) Antigens at 1-2 mg/ml were incubated at 95° C. for 5 min in PBS containing DTT at a final concentration of 40 mM. They were then incubated on ice for 5 min and diluted at their final coating concentration for ELISA purpose.
(§3) ELISA was performed as described above (serum titer determination) using 25 μl of mAb supernatant (Exp 1) or purified mAb at 1 μg/ml (Exp 2).

[2] = biological target: T2, recombinant human wild type EGFR protein (extracellular domain), native (human, UniProt P00533 25-645); assay: ELISA on recombinant antigen
T2 construct: also called wt EGFR; EGFR WT
Procedure: as §1, §2, §3

[3] = biological target: T3, wild type human EGFR, full length, overexpressed on U87MG cells (human, UniProt P00533 25-1210); assay: flow cytometry dose-response, U87MG-EGFRwt cells
T3 construct: also called U87MG-EGFR wt; U87 WT
Procedure: Prior to analysis, cells were plated such that they were not more than 80% confluent on the day of analysis. Unless otherwise stated, all media are kept are 4° C. and all incubations are performed on wet ice. Cells were washed in PBS, harvested by the addition of cell dissociation buffer (Sigma), centrifuged and resuspended in complete medium at a cell density of 2×10⁶ cells/mL. Fifty μL/well of cells were distributed in a polypropylene v-bottom 96 well plate and serial 1/3 dilutions of purified mAbs starting at 100 nM were added and incubated for 2 hours. […] Cells were washed and re-suspended in medium containing Propidium iodide to exclude dead cells from analysis. Samples were filtered through a 60 μm nylon mesh filter plate (Millipore, Ireland) to remove cell aggregates. Flow cytometry analyses were performed on 2,000 viable single-cells events gated on forward scattering, side scattering parameters and propidium iodide dye exclusion using a BD-LSRFortessa flow cytometer (Becton-Dickinson Biosciences, CA, USA) and a standard filter set using BD FACSDiva™ acquisition software, according to manufacturer's instructions.
Specific detection of antibody binding was calculated as the mean fluorescent intensity of binding to each primary antibody after background level subtraction of the mean fluorescent intensity of binding of mouse IgG control. The data were analyzed with GraphPad Prism v 6.0 software using one-site specific binding with Hill slope non-linear regression curve fit model to determine Bmax (maximum specific binding) and Kdₐₚₚ (concentration needed to achieve a half-maximum binding at equilibrium) for each mAb tested.

[4] = biological target: T4, recombinant human EGFRvIII protein (extracellular domain), denatured (human, UniProt P00533 298-623); assay: ELISA Exp 1, mAb supernatant
T4 construct: Same protein as m21 after 95 C for 5 min in PBS with 40 mM DTT (denatured, reduced); also called EGFRvIII Denatured

[5] = biological target: T1, recombinant human wild type EGFR …; assay: ELISA Exp 1, mAb supernatant
[6] = biological target: T5, recombinant human EGFRvIII protein (extracellular domain), native (human, UniProt P00533 298-623); assay: ELISA Exp 1, mAb supernatant
T5 construct: also called hEGFRvIII

[7] = biological target: T2, recombinant human wild type EGFR …; assay: ELISA Exp 1, mAb supernatant
[8] = biological target: T6, EGFRvIII, full length, overexpressed on glioblastoma cells (human, UniProt P00533 298-623); assay: flow cytometry dose-response on U87MG-EGFRvIII cells, apparent Kd
T6 construct: Cells overexpress full length EGFRvIII (deletion of exons 2-7 of EGFR); Cell line (U87MG or DKMG) is named under assay; also called U87MG-EGFRvIII; U87vIII

[9] = biological target: T4, recombinant human EGFRvIII protein …; assay: ELISA Exp 2, purified mAb 1 ug/ml;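 also: ELISA of purified mAb binding to plate-coated antigen, native or heat/DTT-denatured, with pNPP substrate developed for 30 min and incubations at room temperature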
Procedure: as §1, §2, §3

[10] = biological target: T1, recombinant human wild type EGFR …; assay: ELISA Exp 2, purified mAb 1 ug/ml;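 also: ELISA of purified mAb binding to plate-coated antigen, native or heat/DTT-denatured, with pNPP substrate developed for 30 min and incubations at room temperature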
Procedure: as §1, §2, §3

[11] = biological target: T5, recombinant human EGFRvIII protein …; assay: ELISA Exp 2, purified mAb 1 ug/ml;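 also: ELISA of purified mAb binding to plate-coated antigen, native or heat/DTT-denatured, with pNPP substrate developed for 30 min and incubations at room temperature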
Procedure: as §1, §2, §3

[12] = biological target: T2, recombinant human wild type EGFR …; assay: ELISA Exp 2, purified mAb 1 ug/ml;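 also: ELISA of purified mAb binding to plate-coated antigen, native or heat/DTT-denatured, with pNPP substrate developed for 30 min and incubations at room temperature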
Procedure: as §1, §2, §3

Binder	binding result [1]	binding result [2]	binding result [3]	ELISA absorbance 405 nm [4]	ELISA absorbance 405 nm [5]	ELISA absorbance 405 nm [6]	ELISA absorbance 405 nm [7]	Kd [8]	ELISA absorbance 405 nm [9]	ELISA absorbance 405 nm [10]	ELISA absorbance 405 nm [11]	ELISA absorbance 405 nm [12]
B1	no binding	no binding	no binding (tested: 100 nM highest concentration)	1.91 A405	0.003 A405	1.1 A405	0.011 A405	4.3 nM	1.71 A405	0.005 A405	1.67 A405	0.003 A405
B2	no binding	no binding	no binding (tested: 100 nM highest concentration)	2.09 A405	0.007 A405	1.29 A405	0.009 A405	4.2 nM	1.5 A405	0.002 A405	1.49 A405	0.003 A405

Source: patent US20220193132A1 (NATIONAL RESEARCH COUNCIL OF CANADA, published 2022)
